Here are results for 2 molecules from publication PMC9237128, “Molecular insights into intra-complex signal transmission during stressosome activation” (Communications Biology, 2022).

The chains are these.
B2: Listeria innocua RsbS (LiRsbS) (natural protein)
chain: MGIPILKLGECLLISIQSELDDHTAVEFQEDLLAKIHETSARGVVIDITSIDFIDSFIAKILGDVVSMSKLMGAKVVVTGIQPAVAITLIELGITFSGVLSAMDLESGLEKLKQELGE
notes: RsbS of Listeria innocua, gene CAC96121.1; single STAS domain protein; Ser56 not phosphorylated in the structure; source: E. coli BL21 Star (DE3), co-expressed with LiRsbR from pET11a, co-purified (DEAE, Resource Q, Superose 6 Increase SEC)

Series [1] deals with the molecule itself. Briefly: cryo-EM structure; co-expressed and co-purified LiRsbRS complex (monomeric form after SEC), 0.6 mg/mL; C1 map 4.2 Å, D2 map 3.87 Å, icosahedral map 3.45 Å; model built in the D2 map.
Series [2] has as its target B2. Described as above. The settings on record: both partners purified.

B1: Listeria innocua RsbR (LiRsbR) (natural protein)
chain: MYKDFANFIRTNKKDLLNNWMNEMEKQSDPLINDIAKEPMYEETSIEFVDLIVSNITENGSKFNEKLDDFAEKVVHLGWPIHFVTTGLRVFGLLVYTAMRDEDLFLKREEKPEDDAYYRFETWLSSMYNKVVTAYADTWEKTVSIQKSALQELSAPLLPIFEKISVMPLIGTIDTERAKLIIENLLIGVVKNRSEVVLIDITGVPVVDTMVAHHIIQASEAVRLVGCQAMLVGIRPEIAQTIVNLGIELDQIITTNTMKKGMERALALTNREIVEKEG
modifications: phosphothreonine at 241 (by ESI-MS-MS and cryo-EM density; seen only in RsbR protomers interacting with RsbS); Thr175 and Thr209 not phosphorylated
notes: RsbR of Listeria innocua, gene CAC96120.1; N-terminal sensory domain, linker helix and C-terminal STAS domain; also called RsbR1; source: E. coli BL21 Star (DE3), co-expressed with LiRsbS from pET11a, co-purified (DEAE, Resource Q, Superose 6 Increase SEC)
Broadly, the stoichiometry N is a count of units in the complex or per binding partner. As for B1, the binding result in series [1] is reported as “binds”. Also, in series [2], the “stoichiometry N” value worked out at 2 LiRsbR per LiRsbS. Turning to B2, in series [1], the binding result is given as “binds”.
